Legend:
[1] = test system: murine inguinal white adipocytes; test: Thermogenesis gene expression in murine inguinal adipocytes (q-PCR); type: cell-based, mouse; conditions: murine inguinal white adipocytes from stromal vascular fraction, treated 4 days
Method: FIG. 9. Exposure of recombinant RUCILP2 to human visceral white pre-adipocytes or murine inguinal white adipocytes causes up-regulation of the expression of genes involved in thermogenesis/browning. Upper panel: mRNA expression level of adipocyte differentiation marker genes including Ucp1, Pparγ1, Dio2, and Cox2 and brown adipocyte-selective genes including Cpt1b and Ebf2 on human white preadipocytes (HWP). Human white preadipocytes were cultured until 80% confluent and switched into differentiation media (with 0.3 ml/ml fetal calf serum, 8 ug/ml d-biotin, 0.5 ug/ml insulin, 400 ng/ml dexamethasone). The differentiation process to mature adipocytes was completed after 12-14 days. The treatment of RUCILP2 started from the third day of differentiation. Cells were harvested after 14 days of differentiation and the gene expressions were quantified by q-PCR. […] Statistical significance was determined by unpaired two-tailed Student's t test. *, p<0.05 vs 0 nM RUCILP2.
FIG. 28. […] Cells were harvested after 14 days of differentiation and the indicated genes were quantified by q-PCR. […] Cells were harvested after 6 days of differentiation and thermogenesis gene were quantified by q-PCR. […] Cells were harvested after 4 days of differentiation and expression of myogenesis genes were quantified by q-PCR. […] Statistical significance was determined by unpaired two-tailed Student's t test, *, p<0.05 […]

[2] = biological target: αV/β5 integrin receptor complex (Homo sapiens, UniProt P06756+P18084); test: Co-immunoprecipitation on a nickel ion column; type: binding; conditions: 100 nM Fc-fused RUCILP2, 5 nM His-tag αV/β5 integrin
Method: FIG. 6. Co-immunoprecipitation on a nickel ion column to validate binding of recombinant RUCILP2 to the αV/β5 integrin receptor complex. 100 nM Fc-fused RUCILP2 was incubated with 5 nM of His-tag αV/β5 integrin receptor, followed by immunoprecipitation using nickel-nitrilotriacetic acid (Ni-NTA) agarose. Precipitated integrins and co-precipitated irisin were analyzed by immuno-blot analysis. Elution indicates a mixture of disassociated integrin and RUCILP2 from the integrin-RUCILP2 complex. Before loading, samples were a mixture of co-incubation of RUCILP2 and integrin receptor.
• Step 1: Binding of integrin and RUCILP2. One hundred nM FC-tagged RUCILP2 was incubated with 5 nM of the indicated his-tag integrin avb5 in a final volume of 500ul in 1.5 ml Protein LoBind Tubes (Eppendorf, 022431081) for 5/30/90 minutes at room temperature under rotation. • Step 2: After rotation, Ni spin column (ThermoFisher Scientific, R901-01) was applied to immunoprecipitate integrins. In details, Add 500 μl of FC-RUCILP2-integrin-His protein complex to the column. Mix end-over-end at 4° C. for 15 minutes. […] Precipitated integrin was detected by immuno-blot analysis against his tag. Co-precipitated RUCILP2 was detected by immunoblot analysis against FC-tag. […]

[3] = Insulin biosynthesis, summarised in Example 6; type: cell-based

αV/β5 integrin receptor complex, sequence (P06756 31-992 limits assumed): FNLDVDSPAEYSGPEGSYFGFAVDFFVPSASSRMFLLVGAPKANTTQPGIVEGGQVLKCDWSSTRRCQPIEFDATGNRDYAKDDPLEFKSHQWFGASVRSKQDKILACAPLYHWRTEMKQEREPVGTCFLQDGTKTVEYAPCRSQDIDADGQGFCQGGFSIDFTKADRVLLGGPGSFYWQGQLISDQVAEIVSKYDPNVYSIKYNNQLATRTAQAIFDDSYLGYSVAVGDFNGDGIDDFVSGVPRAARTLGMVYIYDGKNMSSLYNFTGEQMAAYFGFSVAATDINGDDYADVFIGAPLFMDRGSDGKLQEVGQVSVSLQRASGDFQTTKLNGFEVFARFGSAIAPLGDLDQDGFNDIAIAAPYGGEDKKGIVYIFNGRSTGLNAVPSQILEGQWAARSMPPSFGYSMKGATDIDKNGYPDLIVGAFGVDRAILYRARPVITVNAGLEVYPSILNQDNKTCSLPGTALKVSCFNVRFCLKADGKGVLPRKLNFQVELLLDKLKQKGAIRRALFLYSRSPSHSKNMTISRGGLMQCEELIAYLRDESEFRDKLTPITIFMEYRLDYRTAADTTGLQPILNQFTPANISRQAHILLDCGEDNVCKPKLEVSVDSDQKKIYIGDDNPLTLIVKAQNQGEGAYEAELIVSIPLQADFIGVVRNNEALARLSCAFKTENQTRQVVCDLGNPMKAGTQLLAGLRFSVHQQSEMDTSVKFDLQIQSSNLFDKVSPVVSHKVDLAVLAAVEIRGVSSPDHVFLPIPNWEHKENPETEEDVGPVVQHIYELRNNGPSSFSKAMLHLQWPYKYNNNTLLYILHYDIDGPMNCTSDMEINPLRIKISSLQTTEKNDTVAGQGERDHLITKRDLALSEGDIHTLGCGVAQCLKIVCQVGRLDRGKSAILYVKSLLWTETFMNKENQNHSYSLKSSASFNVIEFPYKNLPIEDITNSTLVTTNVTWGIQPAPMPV
αV/β5 integrin receptor complex, sequence (P18084 24-719 limits assumed): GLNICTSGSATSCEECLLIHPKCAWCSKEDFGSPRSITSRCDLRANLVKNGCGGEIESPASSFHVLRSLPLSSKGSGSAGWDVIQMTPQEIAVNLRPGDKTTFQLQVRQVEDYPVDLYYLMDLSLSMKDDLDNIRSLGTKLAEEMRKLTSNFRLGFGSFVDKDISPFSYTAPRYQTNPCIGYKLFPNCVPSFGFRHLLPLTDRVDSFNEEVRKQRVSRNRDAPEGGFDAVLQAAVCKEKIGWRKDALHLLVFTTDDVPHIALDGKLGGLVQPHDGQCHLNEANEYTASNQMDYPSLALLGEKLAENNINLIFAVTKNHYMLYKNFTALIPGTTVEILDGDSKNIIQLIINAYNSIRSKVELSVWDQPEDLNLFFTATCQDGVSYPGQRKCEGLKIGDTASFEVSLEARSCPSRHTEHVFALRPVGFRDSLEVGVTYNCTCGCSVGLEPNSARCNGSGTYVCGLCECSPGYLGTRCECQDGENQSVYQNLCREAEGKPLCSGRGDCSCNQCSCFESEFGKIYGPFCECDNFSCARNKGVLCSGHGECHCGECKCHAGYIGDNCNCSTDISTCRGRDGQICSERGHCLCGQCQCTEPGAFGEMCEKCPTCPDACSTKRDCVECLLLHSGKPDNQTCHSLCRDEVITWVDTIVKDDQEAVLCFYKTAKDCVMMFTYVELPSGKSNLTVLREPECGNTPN

B1: RUCILP2: 87 amino acid irisin-like polypeptide cleaved from the Ruminococcus torques FNDC5-like protein RUMTOR_00181; recombinant, 6-His-tagged from E. coli (protein)
chain: APVDVKVSEITETSAKASWKNAADGKEAAGYNVYVDGVKLNKELLTEASCGLTNLKAETTYFVEVTAVDAAGNESVKSEKVTFKTLK
modifications: 6-His tag; Ruminococcus torques
notes: 87 amino acid irisin-like polypeptide cleaved from the Ruminococcus torques FNDC5-like protein RUMTOR_00181; recombinant, 6-His-tagged from E. coli
- expression of genes involved in thermogenesis/browning [1]: up-regulation
- binding to αV/β5 integrin receptor (co-immunoprecipitation) [2]: direct interaction
- insulin biosynthesis [3]: stimulates

Source: patent publication US20240336661A1, “PEPTIDES DERIVED FROM RUMINOCOCCUS TORQUES” (University of Copenhagen, priority 2021, published 2024)
